T1: Human nectin-4 ECD-6His (TNT-175) (human, UniProt Q96NY8 32-349)
T1 construct: the entry holds the extracellular domain with the C-terminal 6His tag
T1 sequence: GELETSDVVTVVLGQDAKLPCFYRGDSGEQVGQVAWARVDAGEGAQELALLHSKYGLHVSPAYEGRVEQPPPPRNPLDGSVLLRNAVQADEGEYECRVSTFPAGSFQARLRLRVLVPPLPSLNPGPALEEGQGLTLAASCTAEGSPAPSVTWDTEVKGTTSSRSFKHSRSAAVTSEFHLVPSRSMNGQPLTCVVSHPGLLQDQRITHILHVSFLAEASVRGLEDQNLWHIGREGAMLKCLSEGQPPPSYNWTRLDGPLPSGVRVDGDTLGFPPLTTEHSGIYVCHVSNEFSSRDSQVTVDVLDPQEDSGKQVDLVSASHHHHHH

T2: human nectin-4 on cells (human, UniProt Q96NY8 32-510)
T2 construct: whole, on cells; also called PVRL4
T2 sequence (looked up): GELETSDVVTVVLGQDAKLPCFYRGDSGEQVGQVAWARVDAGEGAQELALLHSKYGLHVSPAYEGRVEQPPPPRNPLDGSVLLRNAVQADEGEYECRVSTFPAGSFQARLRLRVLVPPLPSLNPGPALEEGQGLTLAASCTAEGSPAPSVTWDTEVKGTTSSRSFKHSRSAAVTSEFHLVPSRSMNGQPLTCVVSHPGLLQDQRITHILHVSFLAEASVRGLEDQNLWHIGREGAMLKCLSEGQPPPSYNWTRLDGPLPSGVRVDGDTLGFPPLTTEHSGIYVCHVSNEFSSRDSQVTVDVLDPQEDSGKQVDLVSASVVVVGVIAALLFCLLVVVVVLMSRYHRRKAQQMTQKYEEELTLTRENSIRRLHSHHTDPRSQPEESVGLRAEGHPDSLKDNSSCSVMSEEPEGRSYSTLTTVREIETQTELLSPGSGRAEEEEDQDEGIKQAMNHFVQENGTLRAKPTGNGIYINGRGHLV


What was measured:
[1] = target: T1, Human nectin-4 ECD-6His (TNT-175); assay: competition ELISA; nectin-4 ECD premixed with TNT207, captured by the coat antibody; % of signal without premix antibody
Experimental: (§1) Competition experiments of nectin-4 antibodies. ELISA plates were coated overnight at 4° C. with goat anti-mouse IgG at […] in PBS. […] As positive control, nectin-4 was diluted at same concentrations without a premix antibody. Two wells per plate were allocated for diluent only as negative/background control. Plates were washed as previously, 50 μL/well of premix was added to each plate and incubated for one hour. Plates were washed then incubated at room temperature for one hour with Rabbit anti 6× HIS HRP diluted 1:4,000 in diluent. Plates were washed once more and incubated at room temperature for 20 minutes with 50 μL/well of ABTS substrate. […] Binding was measured as an Optical Density (O.D.) value normalized to background and calculated as a percentage of positive control at the lowest nectin-4 dilution for greatest resolution.

[2] = target: T1, Human nectin-4 ECD-6His (TNT-175); assay: competition ELISA; nectin-4 ECD premixed with TNT203, captured by the coat antibody; % of signal without premix antibody
Experimental: as §1

[3] = target: T1, Human nectin-4 ECD-6His (TNT-175); assay: competition ELISA; nectin-4 ECD premixed with TNT211, captured by the coat antibody; % of signal without premix antibody
Experimental: as §1

[4] = target: T1, Human nectin-4 ECD-6His (TNT-175); assay: competition ELISA; nectin-4 ECD premixed with TNT210, captured by the coat antibody; % of signal without premix antibody
Experimental: as §1

[5] = target: T1, Human nectin-4 ECD-6His (TNT-175); assay: competition ELISA; nectin-4 ECD premixed with TNT201, captured by the coat antibody; % of signal without premix antibody
Experimental: as §1

human nectin-4 on cells = target: T2, human nectin-4 on cells; assay: flow cytometry MFI, MNK74 (nectin-4 positive) over AGS (negative)
Experimental: Cell binding of nectin-4 antibodies. Cell binding of the nectin-4 antibodies was also assessed. MNK74 (nectin-4 positive) and AGS (nectin-4 negative) cells were obtained from ATCC and cultured according to their protocols. Cells were detached with TrypLE (Gibco) and washed by centrifugation for five minutes at 400×g with FACS buffer (PBS+2% FBS). Cells were resuspended in FACS buffer, plated in 96-well format (0.25 e6/well) then pelleted by centrifugation for five minutes at 400×g. Cells were stained at 4° C. in Fixable Viability Dye eFluor 506 (eBioscience) diluted 1:4,000 in PBS. […] Cells were centrifuged, washed once in FACS buffer and stained at 4° C. with Goat F(ab′)₂ anti-Mouse IgG APC (Southern Biotech) diluted 1:400 in FACS buffer for 30 minutes or appropriate anti-human IgG. Cells were centrifuged, washed twice and fixed in 0.5% paraformaldehyde. Cells were analyzed on Attune NxT Flow Cytometer (Thermo Fisher), with subsequent data analysis by Flowjo 10.7 (BD). Dead cells were excluded by gating on the eFluor 506-negative population. […] Binding was assessed by median fluorescent intensity.

[6] = target: T1, Human nectin-4 ECD-6His (TNT-175); assay: competition ELISA; nectin-4 ECD premixed with TNT204, captured by the coat antibody; % of signal without premix antibody
Experimental: as §1

[7] = target: T1, Human nectin-4 ECD-6His (TNT-175); assay: competition ELISA; nectin-4 ECD premixed with TNT205, captured by the coat antibody; % of signal without premix antibody
Experimental: as §1

[8] = target: T1, Human nectin-4 ECD-6His (TNT-175); assay: competition ELISA; nectin-4 ECD premixed with TNT209, captured by the coat antibody; % of signal without premix antibody
Experimental: as §1

[9] = target: T1, Human nectin-4 ECD-6His (TNT-175); assay: competition ELISA; nectin-4 ECD premixed with TNT206, captured by the coat antibody; % of signal without premix antibody
Experimental: as §1

[10] = target: T1, Human nectin-4 ECD-6His (TNT-175); assay: competition ELISA; nectin-4 ECD premixed with TNT202, captured by the coat antibody; % of signal without premix antibody
Experimental: as §1

[11] = target: T1, Human nectin-4 ECD-6His (TNT-175); assay: competition ELISA; nectin-4 ECD premixed with TNT212, captured by the coat antibody; % of signal without premix antibody
Experimental: as §1

[12] = target: T1, Human nectin-4 ECD-6His (TNT-175); assay: SPR ProteOn, mAb on protein A
Experimental: Initial testing of binding of nectin-4 antibodies to nectin-4. […] Biotinylated protein A (15 μg/mL) was immobilized to the surface of an NLC chip. 30 nM of purified mAb supernatant was diluted in PBS-T and captured over the protein A surface. Serial dilutions of human nectin-4 were injected over the mAb-coated chips, and binding kinetics were determined. Chips were regenerated using 4:1 v/v of IgG elution butter/4M NaCl.

[13] = target: T1, Human nectin-4 ECD-6His (TNT-175); assay: competition ELISA; nectin-4 ECD premixed with TNT208, captured by the coat antibody; % of signal without premix antibody
Experimental: as §1

Row | % of Positive [1] [%] | % of Positive [2] [%] | % of Positive [3] [%] | % of Positive [4] [%] | % of Positive [5] [%] | Fold-change of binding to MNK74 compared to control AGS (human nectin-4 on cells) [fold] | % of Positive [6] [%] | % of Positive [7] [%] | % of Positive [8] [%] | % of Positive [9] [%] | % of Positive [10] [%] | % of Positive [11] [%] | Kd [12] [nM] | koff [12] [s⁻¹] | kon [12] [M⁻¹ s⁻¹] | % of Positive [13] [%] | Binder
1 | 2.2 | 28.8 | 22.2 | 4 | 2.8 | 7.4 | 4.2 | 50 | 26.2 | 7.7 | 3.6 | 5.6 | 3.8 | 0.00399 | 1.05e+06 | 3.5 | TNT-153 (antibody, mouse IgG2a, kappa) heavy: EVQLVESGGGLVQPGGSLRLSCAASGFTFSSYNMNWVRQAPGKGLEWVSYISSSSSTIYYADSVKGRFTISRDNAKNSLSLQMNSLRDEDTAVYYCARAYYYGMDVWGQGTTVTVSSAKTTAPSVYPLAPVCGDTTGSSVTLGCLVKGYFPEPVTLTWNSGSLSSGVHTFPAVLQSDLYTLSSSVTVTSSTWPSQSITCNVAHPASSTKVDKKIEPRGPTIKPCPPCKCPAPNLLGGPSVFIFPPKIKDVLMISLSPIVTCVVVDVSEDDPDVQISWFVNNVEVHTAQTQTHREDYNSTLRVVSALPIQHQDWMSGKEFKCKVNNKDLPAPIERTISKPKGSVRAPQVYVLPPPEEEMTKKQVTLTCMVTDFMPEDIYVEWTNNGKTELNYKNTEPVLDSDGSYFMYSKLRVEKKNWVERNSYSCSVVHEGLHNHHTTKSFSRTPGLLQGG light: DIQMTQSPSSVSASVGDRVTITCRASQGISGWLAWYQQKPGKAPKFLIYAASTLQSGVPSRFSGSGSGTDFTLTISSLQPEDFATYYCQQANSFPPTFGGGTKVEIKRADAAPTVSIFPPSSEQLTSGGASVVCFLNNFYPKDINVKWKIDGSERQNGVLNSWTDQDSKDSTYSMSSTLTLTKDEYERHNSYTCEATHKTSTSPIVKSFNRNEC
2 | 0.3 | 3.5 | 2.4 | 0.3 | 1.2 | 5.1 | 0.7 | 13.5 | 3.4 | 0.5 | 0.8 | 1.5 | 31.4 | 0.00831 | 265000 | 0.3 | TNT-190 (antibody, mouse IgG2a, kappa) heavy: EVQLVQSGGGLVKPGGSLRLSCAASGFTFSDYYMSWVRQAPGKGLEWVSAISGSGGSTYYADSVKGRFTISRDNSKNTLYLQMNSLRAEDTAVYYCARDEGYYYMDVWGKGTTVTVSSAKTTAPSVYPLAPVCGDTTGSSVTLGCLVKGYFPEPVTLTWNSGSLSSGVHTFPAVLQSDLYTLSSSVTVTSSTWPSQSITCNVAHPASSTKVDKKIEPRGPTIKPCPPCKCPAPNLLGGPSVFIFPPKIKDVLMISLSPIVTCVVVDVSEDDPDVQISWFVNNVEVHTAQTQTHREDYNSTLRVVSALPIQHQDWMSGKEFKCKVNNKDLPAPIERTISKPKGSVRAPQVYVLPPPEEEMTKKQVTLTCMVTDFMPEDIYVEWTNNGKTELNYKNTEPVLDSDGSYFMYSKLRVEKKNWVERNSYSCSVVHEGLHNHHTTKSFSRTPGRPQGFGPP light: EIVLTQSPATLSLSPGERATLSCRASQSVSSYLAWYQQKPGQAPRLLIYDASNRATGIPARFSGSGSGTDFTLTISSLQAEDFATYYCQQSYSTRFGGGTKVEIKRADAAPTVSIFPPSSEQLTSGGASVVCFLNNFYPKDINVKWKIDGSERQNGVLNSWTDQDSKDSTYSMSSTLTLTKDEYERHNSYTCEATHKTSTSPIVKSFNRNEC
3 | 1.3 | 18.3 | 13.8 | 1.5 | 0.9 | 6 | 2.6 | 35.9 | 17.8 | 5.5 | 2.8 | 1.8 | 15.2 | 0.0245 | 1.62e+06 | 2 | TNT-196 (antibody, mouse IgG2a, kappa) heavy: EVQLVESGGGLVQPGGSLRLSCAASGFTFSDYYMSWIRQAPGKGLEWVSGISWNSGSIGYADSVKGRFTISRDNSKNTLYLQMNSLRAEDTAVYYCASSGSWYLPLDYWGQGTLVTVSSAKTTAPSVYPLAPVCGDTTGSSVTLGCLVKGYFPEPVTLTWNSGSLSSGVHTFPAVLQSDLYTLSSSVTVTSSTWPSQSITCNVAHPASSTKVDKKIEPRGPTIKPCPPCKCPAPNLLGGPSVFIFPPKIKDVLMISLSPIVTCVVVDVSEDDPDVQISWFVNNVEVHTAQTQTHREDYNSTLRVVSALPIQHQDWMSGKEFKCKVNNKDLPAPIERTISKPKGSVRAPQVYVLPPPEEEMTKKQVTLTCMVTDFMPEDIYVEWTNNGKTELNYKNTEPVLDSDGSYFMYSKLRVEKKNWVERNSYSCSVVHEGLHNHHTTKSFSRTPGRPQGFGPP light: DIQMTQSPSSLSASVGDRVTITCQASQDISNYLNWYQQKPGKVPKLLIYAASTLQSGVPSRFSGSGSGTDFTLTISSLQPEDFATYYCQQSYSTPLTFGGGTKVEIKRADAAPTVSIFPPSSEQLTSGGASVVCFLNNFYPKDINVKWKIDGSERQNGVLNSWTDQDSKDSTYSMSSTLTLTKDEYERHNSYTCEATHKTSTSPIVKSFNRNEC
